Key:
[1] = biological target: dipeptidyl peptidase IV (DPP4), the MERS-CoV receptor, His-tagged (human) (UniProt P27487); test: ELISA, spike coated, His-tagged hDPP4 titrated
[2] = biological target: dipeptidyl peptidase IV (DPP4), the MERS-CoV receptor, His-tagged (human) (UniProt P27487)

Chain of dipeptidyl peptidase IV (DPP4), the MERS-CoV receptor, His-tagged (human) (P27487 29-766 limits assumed): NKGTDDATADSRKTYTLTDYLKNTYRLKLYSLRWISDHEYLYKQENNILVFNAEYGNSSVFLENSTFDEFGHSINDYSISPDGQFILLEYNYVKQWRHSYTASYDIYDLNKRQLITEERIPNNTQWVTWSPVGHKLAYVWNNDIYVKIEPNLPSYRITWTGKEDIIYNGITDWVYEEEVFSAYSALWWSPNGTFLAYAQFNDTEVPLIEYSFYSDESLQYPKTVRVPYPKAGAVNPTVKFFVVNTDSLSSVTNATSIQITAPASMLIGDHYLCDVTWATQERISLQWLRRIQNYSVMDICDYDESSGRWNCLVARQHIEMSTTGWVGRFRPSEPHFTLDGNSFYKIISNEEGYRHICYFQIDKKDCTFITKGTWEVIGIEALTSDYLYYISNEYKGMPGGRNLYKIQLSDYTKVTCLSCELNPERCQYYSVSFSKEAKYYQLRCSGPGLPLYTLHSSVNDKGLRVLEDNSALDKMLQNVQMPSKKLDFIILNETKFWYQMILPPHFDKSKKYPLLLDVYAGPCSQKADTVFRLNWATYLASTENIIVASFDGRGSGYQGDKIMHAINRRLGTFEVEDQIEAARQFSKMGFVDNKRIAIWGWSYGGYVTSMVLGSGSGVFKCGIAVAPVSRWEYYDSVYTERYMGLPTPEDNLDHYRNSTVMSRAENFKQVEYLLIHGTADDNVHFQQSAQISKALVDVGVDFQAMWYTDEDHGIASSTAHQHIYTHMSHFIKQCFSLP

For “wild-type BV2361 protein (SEQ ID NO: 2), native SARS-CoV-2 Spike (S) polypeptide (from UniProt P0DTC2 14-1273) (other; other documents disagree on this pair)”, the EC50 [1] was over 5 µg/mL and the IC50 [2] was over 5 µg/mL.

Source: patent US20250025549A1
